Measurements reported in US12303551B2, “Cellular immunotherapy compositions and uses thereof” (CERO THERPEUTICS HOLDINGS, INC., priority 2018, dated 2025).

Legend:
[1] = test system: SCC152 target cells; assay: Lactate dehydrogenase (LDH) cytotoxicity assay in SCC152 co-culture; format: cell-based; details: CD4+/CER + CD8+/HPV16 E7 TCR 1:1; 4 hours co-culture, varying target:effector ratios
Procedure: FIG. 19 is a bar graph showing a lactate dehydrogenase (LDH) cytotoxicity assay performed 4 hours after co-culture of CD8+ T cells transduced with a HPV16 E7 TCR and CD4+ T cells transduced with CER104 at a 1:1 ratio with SCC152 target cells at varying target cell:effector cell ratios (0.5:1, 1:1, 1:2.5, 1:5, 1:10, 1:20).
LDH is a cytosolic enzyme that is released by a cell into cell culture media when the plasma membrane is damaged. Thus, LDH's presence in culture medium is a marker for cell death. LDH assays are capable of detecting low level damage to cell membrane which cannot be detected using other methods. LDH may be detected using colorimetric or fluorometric methods.

[2] = test system: SCC152 cells; assay: Magnitude breadth analysis of phagocytosis by CER type (pHrodo red / CELLTRACE violet microscopy); format: cell-based; details: 8 hours co-culture with SCC152, CD8+/E7 TCR 1:1
Procedure: Top image is an enlargement of a cell in the lower left image showing a SCC152 cell engulfed by CER126-transduced CD4+ T cell. […] White arrow indicates CD8+ T cell transduced with E7-specific TCR and that is pHrodo Red negative (lower left panel of FIG. 60B). Software rendition of phagocytosis (lower right panel of FIG. 60B).
Various CER-modified CD4+ T cells were also evaluated for breadth of response to determine whether a particular CER confers a broad phagocytic response of low magnitude (e.g., 10% engulfment in 90% of cells) or a less frequent but strong phagocytic response (e.g., 90% engulfment in 10% of cells) in the host cells. CD8+ T cells were transduced with HPV16 E7 specific TCR as described in Example 1. CD4+ T cells were transduced with lentiviral vectors comprising a CER21, CER27, CER104, CER116, or CER117 nucleic acid. Mock-transduced (vector alone) CD4+ T cell were used as control. CD4+/CER+ and CD8+/E7 TCR+ T cells were stained with CELLTRACE violet. HPV16 E7+ head and neck squamous cell carcinoma cells (SCC152) were stained with pHrodo red. HPV16 E7 TCR transduced CD8+ T cells and selected CER transduced CD4+ T cells were mixed at a 1:1 ratio and co-cultured with SCC152 cells at a 1:1 ratio for 8 hours. Phagocytosis of target SCC152 cells by CER-transduced CD4+ T cells was analyzed by fluorescence microscopy. […] The horizontal axis represents the % area of CER-transduced CD4+ T cells having engulfment or % area of the CER-transduced CD4+ T cells taken up by target SCC152 cells. This measure was rarely above 40% across CER types tested. The vertical axis represents the proportion of CER-transduced CD4+ T cells that were phagocytic. For CER104, about 20% of CER104-transduced CD4+ T cells have more than 10% engulfment. For CER117-transduced CD4+ T cells, less than 10% have more than 10% engulfment.

[3] = test system: SCC152 HPV+ Head & Neck Squamous Carcinoma; assay: SCC152 xenograft in NSG mice, tumor caliper measurements; format: in vivo; details: 3×10^6 CER CD4+ T cells added to 1×10^6 E7 TCR CD8+ T cells; versus E7 TCR CD8+ T cells alone
Text: 1×10^^6 CD8^+ T cells engineered with a HPV E7 specific TCR were infused with or without 3×10^6 CD4+ T cells engineered with CER104. Data represents mean value of tumor caliper measurements (n=5 mice per group).
Cellular immunotherapy composition combination comprising HPV E7 specific TCR modified CD8+ T cells (1×10^6) (as described in Example 1) and hCER104 modified CD4+ T cells (3×10^6) were infused into head neck squamous cell cancer mouse model generated by injecting HPV+ SCC152 cells into NSG mice and compared with SCC152 xenograft mice treated with HPV E7 specific TCR modified CD8+ T cells alone (n=5 mice/treatment group).

B1: CER104: Chimeric engulfment receptor: Tim4 binding, Tim4 transmembrane, TLR8 and DAP12 signaling; SEQ ID NO: 139 (protein)
chain: MSKGLLLLWLVTELWWLYLTPAASEDTIIGFLGQPVTLPCHYLSWSQSRNSMCWGKGSCPNSKCNAELLRTDGTRIISRKSTKYTLLGKVQFGEVSLTISNTNRGDSGVYCCRIEVPGWFNDVKKNVRLELRRATTTKKPTTTTRPTTTPYVTTTTPELLPTTVMTTSVLPTTTPPQTLATTAFSTAVTTCPSTTPGSFSQETTKGSAFTTESETLPASNHSQRSMMTISTDIAVLRPTGSNPGILPSTSQLTTQKTTLTTSESLQKTTKSHQINSRQTILIIACCVGFVLMVLLFLAFLHHLFYWDVWFIYNVCLAKVKGYRSLSTSQTFYDAYISYDTKDASVTDWVINELRYHLEESRDKNVLLCLEERDWDPGLAIIDNLMQSINQSKKTVFVLTKKYAKSWNFKTAFYLALQRLMDENMDVIIFILLEPVLQHSQYLRLRQRICKSSILQWPDNPKAEGLFWQTLRNVVLTENDSRYNNMYVDSIKQYYFLGRLVPRGRGAAEAATRKQRITETESPYQELQGQRSDVYSDLNTQRPYYK
modifications: CER104, amino acids 1-22 are signal peptide
- cytolytic activity (LDH release) [1]: enhanced cytolytic activity
- proportion of CER-transduced CD4+ T cells having more than 10% engulfment [2]: about 20%
- tumor killing (tumor volume by caliper) [3]: enhanced tumor killing in vivo

B2: CER117: Chimeric engulfment receptor: Tim4 binding, Tim4 transmembrane, TLR8 and TRAF6 signaling; SEQ ID NO: 153 (protein)
chain: MSKGLLLLWLVTELWWLYLTPAASEDTIIGFLGQPVTLPCHYLSWSQSRNSMCWGKGSCPNSKCNAELLRTDGTRIISRKSTKYTLLGKVQFGEVSLTISNTNRGDSGVYCCRIEVPGWFNDVKKNVRLELRRATTTKKPTTTTRPTTTPYVTTTTPELLPTTVMTTSVLPTTTPPQTLATTAFSTAVTTCPSTTPGSFSQETTKGSAFTTESETLPASNHSQRSMMTISTDIAVLRPTGSNPGILPSTSQLTTQKTTLTTSESLQKTTKSHQINSRQTILIIACCVGFVLMVLLFLAFLHHLFYWDVWFIYNVCLAKVKGYRSLSTSQTFYDAYISYDTKDASVTDWVINELRYHLEESRDKNVLLCLEERDWDPGLAIIDNLMQSINQSKKTVFVLTKKYAKSWNFKTAFYLALQRLMDENMDVIIFILLEPVLQHSQYLRLRQRICKSSILQWPDNPKAEGLFWQTLRNVVLTENDSRYNNMYVDSIKQYMSLLNCENSCGSSQSESDCCVAMASSCSAVTKDDSVGGTASTGNLSSSFMEEIQGYDVEFDPPLESKYECPICLMALREAVQTPCGHRFCKACIIKSIRDAGHKCPVDNEILLENQLFPDNFAKREILSLMVKCPNEGCLHKMELRHLEDHQAHCEFALMDCPQCQRPFQKFHINIHILKDCPRRQVSCDNCAASMAFEDKEIHDQNCPLANVICEYCNTILIREQMPNHYDLDCPTAPIPCTFSTFGCHEKMQRNHLARHLQENTQSHMRMLA
modifications: CER117, amino acids 1-22 are signal peptide
- proportion of CER-transduced CD4+ T cells having more than 10% engulfment [2]: less than 10%
